# In publication PMC11039987:
# Where two headings read alike, the source gives them in different places.
# Experiments:
# Test in all cases: fluorescence anisotropy
# [1] = biological target: T1, RecBCD (prokaryote (species  in the …, UniProt P08394;P07648;P04993 1-1180;1-1122;1-608))
# [2] = biological target: T1, RecBCD; remark: listed apart in the source
# [3] = biological target: T1, RecBCD; remark: listed apart in the source
# T1 sequence (P08394 whole entry, chain 1 of 3): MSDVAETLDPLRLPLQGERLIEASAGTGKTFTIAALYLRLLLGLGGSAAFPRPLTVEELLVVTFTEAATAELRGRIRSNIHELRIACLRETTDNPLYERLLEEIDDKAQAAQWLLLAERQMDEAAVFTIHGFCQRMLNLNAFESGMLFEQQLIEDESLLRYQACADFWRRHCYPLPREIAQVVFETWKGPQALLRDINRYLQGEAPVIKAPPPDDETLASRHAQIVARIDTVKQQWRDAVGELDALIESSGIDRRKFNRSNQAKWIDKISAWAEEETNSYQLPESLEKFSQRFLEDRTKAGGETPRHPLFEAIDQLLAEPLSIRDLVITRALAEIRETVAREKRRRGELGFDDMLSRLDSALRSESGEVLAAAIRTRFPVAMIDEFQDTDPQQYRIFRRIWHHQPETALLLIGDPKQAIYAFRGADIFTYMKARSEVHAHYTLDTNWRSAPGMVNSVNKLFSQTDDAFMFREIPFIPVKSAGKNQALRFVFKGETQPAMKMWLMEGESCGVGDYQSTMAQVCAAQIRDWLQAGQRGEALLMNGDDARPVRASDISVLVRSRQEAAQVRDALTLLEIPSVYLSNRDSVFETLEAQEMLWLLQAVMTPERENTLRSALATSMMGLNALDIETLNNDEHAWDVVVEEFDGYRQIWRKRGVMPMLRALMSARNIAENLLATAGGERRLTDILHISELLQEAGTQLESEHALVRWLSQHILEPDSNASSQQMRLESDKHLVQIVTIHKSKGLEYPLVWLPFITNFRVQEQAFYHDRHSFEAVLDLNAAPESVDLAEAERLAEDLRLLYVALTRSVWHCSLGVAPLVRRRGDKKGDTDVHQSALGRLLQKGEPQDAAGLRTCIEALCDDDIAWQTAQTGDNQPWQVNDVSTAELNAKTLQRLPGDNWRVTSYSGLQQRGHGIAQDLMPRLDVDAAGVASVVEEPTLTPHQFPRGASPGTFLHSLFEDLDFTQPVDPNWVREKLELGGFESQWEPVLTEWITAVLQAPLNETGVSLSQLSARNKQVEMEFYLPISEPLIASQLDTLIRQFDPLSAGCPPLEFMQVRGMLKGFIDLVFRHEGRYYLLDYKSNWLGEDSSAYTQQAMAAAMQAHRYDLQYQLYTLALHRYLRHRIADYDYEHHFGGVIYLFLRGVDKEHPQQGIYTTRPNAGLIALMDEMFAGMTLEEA
# T1 sequence (P07648 whole entry, chain 2 of 3): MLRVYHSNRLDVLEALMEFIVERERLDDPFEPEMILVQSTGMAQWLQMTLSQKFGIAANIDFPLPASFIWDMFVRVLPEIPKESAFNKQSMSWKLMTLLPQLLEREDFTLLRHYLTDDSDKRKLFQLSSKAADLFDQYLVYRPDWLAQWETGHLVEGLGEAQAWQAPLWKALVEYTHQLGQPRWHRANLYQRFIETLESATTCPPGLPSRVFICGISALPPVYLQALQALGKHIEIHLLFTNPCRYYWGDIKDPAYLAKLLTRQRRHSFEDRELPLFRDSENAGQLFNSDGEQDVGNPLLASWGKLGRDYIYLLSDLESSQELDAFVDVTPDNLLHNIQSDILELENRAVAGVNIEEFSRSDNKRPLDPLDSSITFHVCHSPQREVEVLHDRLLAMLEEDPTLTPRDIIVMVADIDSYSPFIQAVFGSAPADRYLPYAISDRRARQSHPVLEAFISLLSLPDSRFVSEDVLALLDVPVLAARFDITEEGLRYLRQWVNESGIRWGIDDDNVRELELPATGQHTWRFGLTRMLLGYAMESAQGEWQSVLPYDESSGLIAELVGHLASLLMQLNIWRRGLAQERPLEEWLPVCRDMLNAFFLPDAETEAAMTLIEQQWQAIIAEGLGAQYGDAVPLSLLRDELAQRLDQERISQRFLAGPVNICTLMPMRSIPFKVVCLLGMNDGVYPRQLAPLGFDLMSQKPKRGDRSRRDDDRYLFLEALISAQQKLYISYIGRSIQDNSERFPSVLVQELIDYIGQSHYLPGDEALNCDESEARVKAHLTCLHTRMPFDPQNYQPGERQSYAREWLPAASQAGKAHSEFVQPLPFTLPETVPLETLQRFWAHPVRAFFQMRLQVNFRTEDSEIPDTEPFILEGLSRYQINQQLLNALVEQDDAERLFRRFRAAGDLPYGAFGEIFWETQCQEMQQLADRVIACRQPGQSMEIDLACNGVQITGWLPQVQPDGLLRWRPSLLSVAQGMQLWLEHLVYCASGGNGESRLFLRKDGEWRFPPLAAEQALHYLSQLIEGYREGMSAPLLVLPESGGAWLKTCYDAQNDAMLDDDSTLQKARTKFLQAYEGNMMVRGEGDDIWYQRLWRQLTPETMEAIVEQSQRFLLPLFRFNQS
# T1 sequence (P04993 whole entry, chain 3 of 3): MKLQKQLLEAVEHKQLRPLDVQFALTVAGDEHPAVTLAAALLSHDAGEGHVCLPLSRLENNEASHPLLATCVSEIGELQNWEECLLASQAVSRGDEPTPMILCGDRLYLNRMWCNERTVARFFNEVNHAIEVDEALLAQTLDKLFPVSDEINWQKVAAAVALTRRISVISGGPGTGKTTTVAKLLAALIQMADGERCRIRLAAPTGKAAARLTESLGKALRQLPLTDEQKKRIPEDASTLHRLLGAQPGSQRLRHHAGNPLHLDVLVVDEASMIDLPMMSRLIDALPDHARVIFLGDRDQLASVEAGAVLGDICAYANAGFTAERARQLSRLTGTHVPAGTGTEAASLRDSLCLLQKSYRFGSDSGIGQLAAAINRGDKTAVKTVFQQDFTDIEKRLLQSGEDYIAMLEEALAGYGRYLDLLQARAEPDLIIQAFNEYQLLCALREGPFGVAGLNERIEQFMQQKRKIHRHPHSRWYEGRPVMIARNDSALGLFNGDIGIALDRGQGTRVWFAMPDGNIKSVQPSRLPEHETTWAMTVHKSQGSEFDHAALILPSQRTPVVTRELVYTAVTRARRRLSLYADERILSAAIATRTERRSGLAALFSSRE
binder,measurement,setting,value
GATGTGACTCGTTACCTGAGTTTTTACTCAGGTAACGAGTCACATC (structured_DNA) [hpDNA-F],binding result,[1],binds
AGAGAGAGAGAGAGAGAGAGAGAG (ssDNA) [ssDNA-F],binding result,[2],binds
3ohDNA-F (structured_DNA) DNA: CATGTGACTCGTTACCTGAGTTTTTACTCAGGTAACGAGTCACATGATATATATAT,Kd,[3],166 ± 41 nM
